Assay results as given in publication PMC2223497 (2026).

Experiments:
Assay in all cases: Scatchard binding assay
[1] = target: T1, G-CSF receptor (KK cells) (Homo sapiens, UniProt Q99062)
T1 chain: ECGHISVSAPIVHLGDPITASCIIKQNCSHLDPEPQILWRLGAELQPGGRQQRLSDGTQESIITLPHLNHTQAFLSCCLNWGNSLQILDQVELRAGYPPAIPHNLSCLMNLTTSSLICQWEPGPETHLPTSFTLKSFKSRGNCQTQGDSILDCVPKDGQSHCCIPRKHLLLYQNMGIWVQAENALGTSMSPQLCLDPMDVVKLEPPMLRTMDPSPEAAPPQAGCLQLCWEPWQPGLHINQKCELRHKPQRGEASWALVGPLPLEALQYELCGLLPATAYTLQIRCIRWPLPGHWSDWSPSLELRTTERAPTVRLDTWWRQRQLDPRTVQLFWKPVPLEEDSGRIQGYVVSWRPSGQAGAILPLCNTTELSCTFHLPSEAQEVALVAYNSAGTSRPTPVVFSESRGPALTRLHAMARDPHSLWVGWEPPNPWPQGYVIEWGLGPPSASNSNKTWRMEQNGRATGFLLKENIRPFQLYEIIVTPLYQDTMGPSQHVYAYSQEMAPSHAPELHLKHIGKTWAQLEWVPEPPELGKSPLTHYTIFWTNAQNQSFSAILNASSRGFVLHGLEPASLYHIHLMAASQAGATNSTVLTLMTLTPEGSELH

[2] = target: T2, G-CSF receptor (NBT-2 cells) (Homo sapiens, UniProt Q99062)
T2 chain: T1 chain

[3] = target: T3, G-CSF receptor (KU-1 cells) (Homo sapiens, UniProt Q99062)
T3 chain: T1 chain

B1: G-CSF (protein)
chain: TPLGPASSLPQSFLLKCLEQVRKIQGDGAALQEKLVSECATYKLCHPEELVLLGHSLGIPWAPLSSCPSQALQLAGCLSQLHSGLFLYQGLLQALEGISPELGPTLDTLQLDVADFATTIWQQMEELGMAPALQPTQGAMPAFASAFQRRAGGVLVASHLQSFLEVSYRVLRHLAQP
- Kd [1]: 0.103 nM
- Kd [2]: 0.34 nM
- Kd [3]: 0.49 nM
